Experimental findings from the nanobody polyreactivity screen of Harvey et al. (2022) are described below.

This series is described as follows: yeast display, Sf9 membrane polyspecificity reagent, FACS + sequencing; frameworks hold sequencing errors. In a few lines: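 A synthetic nanobody library was expressed on Saccharomyces cerevisiae BJ5465 by galactose induction for 36–48 hours. The library was stained for 1 hour at 4 °C with 10% biotinylated, detergent-solubilized Sf9 membrane reagent and enriched with streptavidin microbeads before FACS. Low and high (top ~1%) gates were set on anti-HA fluorescence for expression and streptavidin fluorescence for reagent binding, and each polyreactivity label reflects the gate of origin.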
As to “QVHLVESGGGLVQAGGSLRLSCAASGRTFSRYPMGWYRQAPGKERELVAAIRGNSGNTYYAYSVKGRFTISRDNAKNTVYLQMNSLKPEDTAVYYCAKPFNIWGQGTQVTVSS”, the “polyreactivity (PSR sort gate)” value is on record as “high polyreactivity”.
For “QVHLVESGGGLVQAGGSLRLSCAASGRTFSTYAMGWYRQAPGTERELVAAISSGGGRTYYADSVKGRFTISRDNAKNTVYLQMNRLKPEDTAVYYCAADRYFRSSRSYEYWGQGTLVTVSS”, the “polyreactivity (PSR sort gate)” value is “low polyreactivity”.
As to “QVHLVESGGGLVQAGGSLRLSCAASGRTFWLNAMGWYRQAPGKERELVATISSSSGSTTYADSVKGRFTISRDNAKNTVYLQINSLKPEDTAVYYCAVYSHKKVRPEYDYWGQGTQVTVSS”, the “polyreactivity (PSR sort gate)” value is listed as “low polyreactivity”.
As to “QVHLVESGGGLVQAGGSLRLSCAASGRTFYSYVMGWYRQAPGKERELVAAISSTGGTYADSVKGRFTISRDNAKNTVYLQINSLKPEETAVYYCAAATPTGYKRGGYWGQGTQVTVSS”, the “polyreactivity (PSR sort gate)” value is recorded as “low polyreactivity”.
For “QVHLVESGGGLVQAGGSLRLSCAASGRTIAAYAMGWYRQAPGKERELVAAISRSGGSTYYADSVKGRFTISRDNAKNTVYLQMNSLKPEDTAVYYCAAQRQYGKFDYWGQGTQVTVSS” the value was “high polyreactivity”.
For “QVHLVESGGGLVQAGGSLRLSCAASGRTIRLNVMGWYRQAPGKERELVAAITRSVGSTYYADSVKGRFTISRDYAKNTVYLQMNSLKPEDTAVYYCNAVRSRYYDDYDYWGQGTQVTVSS” the value was “high polyreactivity”; for “QVHLVESGGGLVQAGGSLRLSCAASGRTLVPNAMGWYRQAPGKERELVAAISRSGGSTYYADSLKGRFTISRDNAKNTVYLQMNSLKPEDTAVYYCAKDKRIFYRVGSDYWGQGTQVTVSS”, “low polyreactivity”; for “QVHLVESGGGLVQAGGSLRLSCAASGRTLYYYTMGWYRQAPGKERDLVAAIRWSTGSTYYADSVKGRFTISRDNAKNTVYLQMNSLKPEDTAVYYCNASRYQWAQSTEYDYWGQGTQVTVSS”, “high polyreactivity”.
Next, “QVHLVESGGGLVQAGGSLRLSCAASGSICGHYAMGWYRQAPGKERELVANITLSDGRTYYADSVKGRFTISLDNAKNTVYFQMNSLKPEDTAVYYCAARYYSFSSPFDYWGQGNQVTVSS”: “high polyreactivity”.
Consider “QVHLVESGGGLVQAGGSLRLSCAASGSIFFTYAMGWYRQAPGKETEWVAAISSGGSPYYADSVKGRFTISRDNANNTVYLQMNSLKPEDTEVYYCAARGYRLVPVDFSYWGQGTQVTVSS”, for which the “polyreactivity (PSR sort gate)” value was “low polyreactivity”.
As for “QVHLVESGGGLVQAGGSLRLSCAASGSIFGGYGMGWYRQAPGKEREMVAAITSGSSTYYADSVKGPFTISRDNAKNSVYFQLNSLKPEDTAVYYCAARPYPHSAYEGDYWGRGTQVTVSS”, the “polyreactivity (PSR sort gate)” value is “low polyreactivity”.
“QVHLVESGGGLVQAGGSLRLSCAASGSIFGYNAMGWYRQAPGKERELVAAISLTTGSTYYADSVKGRFTISRDNAKNTVYLQMNSLKPEDTAVYYCAIRGFYRGYGQAYGYWGQGTLVTVSS”: the “polyreactivity (PSR sort gate)” value is reported as “high polyreactivity”.
On to “QVHLVESGGGLVQAGGSLRLSCAASGSIFHGYSMGWYRQAPGKERELVAAINSGDGSTYADSVKGRFTISRDNAKNTVYLQMNSLKPEDTAVYYCATDGTYYEHDYWGQATQVTVSS”, for which the “polyreactivity (PSR sort gate)” value was “low polyreactivity”.
On to “QVHLVESGGGLVQAGGSLRLSCAASGSIFPFNAMGWYRQAPGKERELVAAIRWSDGRTYYADSVKGRFTISRDNAKNTVYLQMNSLKPEDTAVYYCAAKSYWGQGTQVTVSS”, for which the “polyreactivity (PSR sort gate)” value is on record as “high polyreactivity”.
In the case of “QVHLVESGGGLVQAGGSLRLSCAASGSIFQPYAMGWYRQAPGTERELVAAISSSGGSTTYADSVKGRFTISRDKAKNTVYLQMNSLKPEDTAVYYCAAESADDMGYWGQGTQVTVSS”, the “polyreactivity (PSR sort gate)” value is given as “low polyreactivity”.
Turning to “QVHLVESGGGLVQAGGSLRLSCAASGSIFRLYSMGWYRQAPGKERELVARITTGGSTNYADSVKGRFTISRDNAKNTVYLQMNSLKPEDTAVYYCNAGVWVTAQLGLQKYSYWGQGTQVTVSS”, the “polyreactivity (PSR sort gate)” value was “high polyreactivity”.
Next, “QVHLVESGGGLVQAGGSLRLSCAASGSIFSRNAMGWYRQAPGKERELVAAISRGANTYYADSVKGRFTISRDNAKNTVYLQMNSLKPEDTAVYYCNAGSRSRYEGGYWGQGTQVTVSS”: “high polyreactivity”.
